Assay results reported in article PMC8429728, “TNK1 is a ubiquitin-binding and 14-3-3-regulated kinase that can be targeted to block tumor growth” (Nature Communications, 2021).
Blank lines part the entries; values can stand above or below the substance they belong to.

Assays:
[1] = target: FLAG-TNK1 ΔUBA (1–580) (human) (UniProt Q13470); test: co-IP; FLAG-TNK1 (WT or mutants) precipitated on anti-DYKDDDDK resin from HEK-293T lysate (10 mM HEPES KOH pH 7.5, 150 mM KCl, 0.01% IGEPAL), 1 h 4 °C, washed with PBS; immunoblotted for 14-3-3 or ubiquitin; in Fig. 2c cells treated with 1 uM kinase inhibitors for 4 h
Sequence of FLAG-TNK1 ΔUBA (1–580) (human) (Q13470 1-580, stated change not applied): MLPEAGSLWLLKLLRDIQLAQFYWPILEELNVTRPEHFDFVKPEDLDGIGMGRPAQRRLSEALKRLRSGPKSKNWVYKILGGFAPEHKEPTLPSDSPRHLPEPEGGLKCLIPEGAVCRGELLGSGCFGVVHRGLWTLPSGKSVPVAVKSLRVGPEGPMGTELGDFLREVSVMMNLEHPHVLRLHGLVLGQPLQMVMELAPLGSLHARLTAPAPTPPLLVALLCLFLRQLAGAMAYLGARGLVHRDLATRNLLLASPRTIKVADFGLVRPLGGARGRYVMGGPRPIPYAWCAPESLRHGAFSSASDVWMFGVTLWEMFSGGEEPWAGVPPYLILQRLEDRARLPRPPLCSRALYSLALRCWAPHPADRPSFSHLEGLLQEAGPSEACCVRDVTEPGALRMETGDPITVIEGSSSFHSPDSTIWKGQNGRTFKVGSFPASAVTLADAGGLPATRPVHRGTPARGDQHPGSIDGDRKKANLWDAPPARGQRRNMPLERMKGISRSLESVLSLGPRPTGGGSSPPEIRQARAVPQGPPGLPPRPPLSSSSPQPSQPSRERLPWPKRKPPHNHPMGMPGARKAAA

[2] = target: Biotin-(4xPEG)-RNKGISRp… (human); test: BLI; biotin-tagged peptide loaded on streptavidin biosensors; 14-3-3ζ 50–1000 nM, 4 s association, 120 s dissociation; 0.001% TBST; 30 °C; Kd = Koff/Kon, mean of 3 runs
14-3-3ζ = 14-3-3ζ (UniProt P63104); test: in vitro europium/Cy5 FRET binding assay

Sequence of 14-3-3 (endogenous, isoform not told) (P63104 whole entry, canonical isoform): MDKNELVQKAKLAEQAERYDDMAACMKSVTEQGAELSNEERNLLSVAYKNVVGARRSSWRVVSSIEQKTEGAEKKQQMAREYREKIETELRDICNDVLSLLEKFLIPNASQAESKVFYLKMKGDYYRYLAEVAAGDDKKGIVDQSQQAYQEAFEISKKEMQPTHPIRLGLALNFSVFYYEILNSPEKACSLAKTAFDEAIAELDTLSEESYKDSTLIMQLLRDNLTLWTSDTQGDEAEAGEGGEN

fold increase in interaction with 14-3-3 compared to WT TNK1 [1]: 4 fold
Substance: 14-3-3 (endogenous, isoform not told) (from UniProt P63104 1-245) (natural protein)

Kd [2]: 3.39 µM
Substance: 14-3-3ζ (purified, from the GST-14-3-3ζ plasmid) (from UniProt P63104 1-245) (natural protein)

binding against the reference (14-3-3ζ; reference: pS502 mono-phosphorylated peptide, sites S500,S505): lost
Substance: TNK1 (from UniProt Q13470) pS500/pS502/pS505 peptide

binding against the reference (14-3-3ζ; reference: non-phosphorylated peptide, sites S502): gained
Substance: TNK1 (from UniProt Q13470) pS502 peptide
